Results: paper PMC10317887, “Hypoglycaemia frequency and physiological response after double or triple doses of once-weekly insulin icodec vs once-daily insulin glargine U100 in type 2 diabetes: a randomised crossover trial” (Diabetologia, 2023)

Key:
[1] = system: individuals with type 2 diabetes; assay: Safety: adverse events and non-induced hypoglycaemic episodes during treatment periods
Text: Safety assessments during the trial included adverse events (AEs), hypoglycaemic episodes (other than those induced), vital signs (other than those assessed during hypoglycaemia induction), electrocardiograms, physical examinations and clinical laboratory assessments (haematology, biochemistry and urinalysis).
AEs and hypoglycaemic episodes (other than those induced) during the treatment periods were summarised. The end of each treatment period was defined as 7 days after the last icodec dose and 2 days after the last glargine U100 dose. […] Hypoglycaemic episodes were classified as level 1 (PG <3.9 mmol/l and ≥3.0 mmol/l), level 2 (PG <3.0 mmol/l) and level 3 (severe cognitive impairment requiring assistance for recovery) [20].

[2] = system: individuals with type 2 diabetes; assay: Cognitive function: four-choice reaction time (4CRT) test; conditions: for Change in 4CRT correctness at PG3.0 mmol/l, least-squares mean / Change in 4CRT response time at PG3.0 mmol/l, least-squares mean / Change in 4CRT correctness at PGnadir, least-squares mean / Change in 4CRT response time at PGnadir, least-squares mean: change from baseline, subgroup
Method: Hypoglycaemic response assessments were conducted at predefined PG levels during hypoglycaemia development and recovery (Fig. 1b). Hypoglycaemic symptoms score (HSS), hypoglycaemia awareness, counterregulatory hormones, vital signs and cognitive function tests were assessed at baseline (PG5.5 mmol/l), during hypoglycaemia development (PG3.9 mmol/l and PG3.0 mmol/l) and at PGnadir.
Cognitive function was assessed using the trail making B (TMB) test, the digit symbol substitution test (DSST) and the four-choice reaction time (4CRT) test. In the TMB test from the Halstead Reitan Neuropsychological Battery [16, 17], the participant connects 25 circles distributed on a chart in the correct sequence as quickly as possible. The circles contain a number (1–13) or a letter (A–L), and the correct sequence consists of alternating numbers and letters (i.e. 1–A–2–B–3 etc). The test result is the time needed to complete the task correctly. In the DSST, which is a subtest of the Wechsler Adult Intelligence Scale - Revised [18], nine digits are represented by nine different symbols. During 90 s, the participant is requested to write down the appropriate symbol for as many numbers as possible in a given array. The test result is the number of correct responses. […] In 100 cycles, the participant responds by pressing the corresponding position on a keypad. The test result has two components: percentage of correct answers and the mean response time.
(§3) Changes in HSS, vital signs and cognitive function tests from baseline (PG5.5 mmol/l) to PG3.0 mmol/l and to PGnadir were compared between insulin products at each of the two dose levels using the same approach as described for PGnadir, except that no logarithmic transformation was done and that the baseline value was included as a covariate. Least-squares means, treatment difference and 95% CI were derived.

[3] = system: noradrenaline (norepinephrine); assay: Counterregulatory hormone response: plasma noradrenaline (LC-MS); type: in vivo, human; conditions: for Noradrenaline at PG3.0 mmol/l, estimated geometric mean / Noradrenaline at PGnadir, estimated geometric mean: plasma, subgroup
Method: (§1) Plasma concentrations of glucagon were measured by an enzyme-linked immunosorbent assay (Mercodia AB, Uppsala, Sweden). Plasma concentrations of adrenaline (epinephrine) and noradrenaline (norepinephrine) were measured by liquid chromatography-mass spectrometry (Thermo Fisher Scientific, Dreieich, Germany). Serum concentrations of cortisol and growth hormone were measured by electrochemiluminescent immunoassays (Roche Diagnostics, Mannheim, Germany).

[4] = system: individuals with type 2 diabetes; assay: Continuous glucose monitoring (CGM) after double and triple doses
Method: In addition to self-measured PG, which was performed throughout the trial, and PG measurements performed at the clinical site, continuous glucose monitoring (CGM) was conducted from the first dose of the first treatment period until the end of the second treatment period (Dexcom G6; Dexcom, San Diego, CA, USA). CGM data were visible to the participants and the investigators but were not used for titration of basal insulin dose or for reporting hypoglycaemia.
CGM data were summarised from the time of double or triple dose until the next insulin administration (excluding the period of hypoglycaemia induction experiments), thereby eliminating any confounding effect of other insulin.

adrenaline (epinephrine) = assay: Counterregulatory hormone response: plasma adrenaline (LC-MS); type: in vivo, human; conditions: for Adrenaline at PG3.0 mmol/l, estimated geometric mean / Adrenaline at PGnadir, estimated geometric mean: plasma, subgroup
Method: as §1

insulin receptor = conditions: ref [9], [10]; cited from earlier work
Text: (§2) In addition, the low insulin receptor binding affinity of icodec contributes to its long half-life by reducing the clearance rate, as insulin is mainly cleared by internalisation following binding to and activation of the insulin receptor [9, 10]. In case of excess amounts of icodec throughout the body, e.g ...

albumin = conditions: ref [9], [10]; cited from earlier work
Text: as §2

growth hormone = assay: Counterregulatory hormone response: serum growth hormone (electrochemiluminescent immunoassay); type: in vivo, human; conditions: for Growth hormone at PG3.0 mmol/l, estimated geometric mean / Growth hormone at PGnadir, estimated geometric mean: serum, subgroup; for Growth hormone at PGnadir, estimated geometric mean: n=19 icodec
Method: as §1

[5] = system: individuals with type 2 diabetes; assay: Vital signs during hypoglycaemia induction; conditions: for Change in SBP at PG3.0 mmol/l, least-squares mean / Change in pulse at PG3.0 mmol/l, least-squares mean / Change in DBP at PGnadir, least-squares mean / Change in SBP at PGnadir, least-squares mean / Change in pulse at PGnadir, least-squares mean / Change in DBP at PG3.0 mmol/l, least-squares mean: change from baseline, subgroup
Method: Hypoglycaemic response assessments were conducted at predefined PG levels during hypoglycaemia development and recovery (Fig. 1b). Hypoglycaemic symptoms score (HSS), hypoglycaemia awareness, counterregulatory hormones, vital signs and cognitive function tests were assessed at baseline (PG5.5 mmol/l), during hypoglycaemia development (PG3.9 mmol/l and PG3.0 mmol/l) and at PGnadir. In addition, counterregulatory hormones and vital signs were assessed during recovery from hypoglycaemia at PG3.0 mmol/l, PG3.9 mmol/l and PG5.5 mmol/l.
Vital signs (diastolic blood pressure, systolic blood pressure and pulse) were measured after ≥5 min of rest in a supine position.
as §3

cortisol = assay: Counterregulatory hormone response: serum cortisol (electrochemiluminescent immunoassay); type: in vivo, human; conditions: for Cortisol at PG3.0 mmol/l, estimated geometric mean / Cortisol at PGnadir, estimated geometric mean: serum, subgroup; for Cortisol at PGnadir, estimated geometric mean: n=19 icodec
Method: as §1

[6] = treatment periods, outside hypoglycaemia induction experiments
[7] = double dose, n=16 icodec, 15 glargine U100
[8] = double dose, n=18 icodec, 17 glargine U100
[9] = triple dose, n=19 icodec, 28 glargine U100
[10] = triple dose, n=20 icodec, 27 glargine U100
[11] = double dose, n=17 icodec, 15 glargine U100
[12] = double dose, n=20 icodec, 19 glargine U100
[13] = triple dose, n=20 icodec, 28 glargine U100
[14] = triple dose, n=20 icodec, 29 glargine U100
[15] = after double dose: first 2 weeks (icodec) / first 48 h (glargine U100), participants with clinically significant hypoglycaemia during induction
[16] = after triple dose: first week (icodec) / first 48 h (glargine U100), participants with clinically significant hypoglycaemia during induction

Substance: insulin icodec
- Number of level 2 hypoglycaemic episodes ([1]; from end of hypoglycaemia induction experiment until 1 week after triple dose): six episodes in five individuals
- Number of level 2 hypoglycaemic episodes ([1]; from end of hypoglycaemia induction experiment until 2 weeks after double dose): four episodes in three individuals
- Duration of level 2 hypoglycaemic episodes, mean±SD ([1]; over both doses, treatment periods, outside induction): 25.3 ± 8.5 min
- AE rate ([1]; treatment periods): 10.9 AEs per participant-year of exposure
- Rate of clinically significant hypoglycaemic episodes (level 2, PG <3.0 mmol/l) [1, 6]: 3.4 episodes per participant-year of exposure
- Severe hypoglycaemic episodes (level 3) [1, 6]: no severe hypoglycaemic episodes
- Number of AEs reported ([1]; treatment periods, exposure 4.8 participant-years icodec, 1.6 glargine U100): 52 AEs
- Change in 4CRT correctness at PG3.0 mmol/l, treatment difference (95% CI) icodec vs glargine U100 ([2]; double dose): 0.2 (-1.1, 1.4)
- Change in 4CRT correctness at PGnadir, treatment difference (95% CI) icodec vs glargine U100 ([2]; double dose): -0.2 (-1.3, 0.9)
- Change in 4CRT response time at PG3.0 mmol/l, treatment difference (95% CI) icodec vs glargine U100 ([2]; double dose): -79.7 (-170.4, 10.9)
- Change in 4CRT response time at PGnadir, treatment difference (95% CI) icodec vs glargine U100 ([2]; double dose): -97.1 (-230.5, 36.3)
- Change in 4CRT correctness at PG3.0 mmol/l, least-squares mean [2, 7]: 0.1 %-points
- Change in 4CRT response time at PG3.0 mmol/l, least-squares mean [2, 7]: 19.7 ms
- Change in 4CRT correctness at PGnadir, least-squares mean [2, 8]: -0.3 %-points
- Change in 4CRT response time at PGnadir, least-squares mean [2, 8]: 40.4 ms
- Change in 4CRT correctness at PG3.0 mmol/l, treatment difference (95% CI) icodec vs glargine U100 ([2]; triple dose): 0.1 (-0.7, 0.9)
- Change in 4CRT correctness at PGnadir, treatment difference (95% CI) icodec vs glargine U100 ([2]; triple dose): 0.4 (-0.9, 1.7)
- Change in 4CRT response time at PG3.0 mmol/l, treatment difference (95% CI) icodec vs glargine U100 ([2]; triple dose): 11.8 (-44.0, 67.6)
- Change in 4CRT response time at PGnadir, treatment difference (95% CI) icodec vs glargine U100 ([2]; triple dose): -66.7 (-155.8, 22.4)
- Change in 4CRT correctness at PGnadir, least-squares mean [2, 9]: -0.3 %-points
- Change in 4CRT response time at PGnadir, least-squares mean [2, 9]: 21.3 ms
- Change in 4CRT correctness at PG3.0 mmol/l, least-squares mean [2, 10]: -0.3 %-points
- Change in 4CRT response time at PG3.0 mmol/l, least-squares mean [2, 10]: 55.4 ms
- Noradrenaline at PG3.0 mmol/l, treatment ratio (95% CI) icodec vs glargine U100 ([3]; double dose): 1.12 (0.83, 1.50)
- Noradrenaline at PGnadir, treatment ratio (95% CI) icodec vs glargine U100 ([3]; double dose): 1.19 (0.91, 1.55)
- Noradrenaline at PG3.0 mmol/l, estimated geometric mean [3, 11]: 952.7 pmol/L
- Noradrenaline at PGnadir, estimated geometric mean [3, 12]: 1078.0 pmol/L
- Noradrenaline at PG3.0 mmol/l, treatment ratio (95% CI) icodec vs glargine U100 ([3]; triple dose): 1.26
- Noradrenaline at PGnadir, treatment ratio (95% CI) icodec vs glargine U100 ([3]; triple dose): 1.05 (0.79, 1.40)
- Noradrenaline at PG3.0 mmol/l, estimated geometric mean [3, 13]: 1058.4 pmol/L
- Noradrenaline at PGnadir, estimated geometric mean [3, 14]: 934.1 pmol/L
- Percentage time spent with glucose <3.9 mmol/l (CGM), mean±SD ([4]; after double dose: first 2 weeks (icodec) / first 48 h (glargine U100), all participants): 0.99±2.12%
- Percentage time spent with glucose <3.0 mmol/l (CGM), mean±SD ([4]; after double dose: first 2 weeks (icodec) / first 48 h (glargine U100), all participants, induction period excluded): 0.15±0.44%
- Percentage time spent with glucose <3.0 mmol/l (CGM), mean±SD [4, 15]: 0.21±0.45%
- Percentage time spent with glucose <3.9 mmol/l (CGM), mean±SD [4, 15]: 1.63±2.75%
- Percentage time spent with glucose <3.9 mmol/l (CGM), mean±SD ([4]; after triple dose: first week (icodec) / first 48 h (glargine U100), all participants): 1.56±3.54%
- Percentage time spent with glucose <3.0 mmol/l (CGM), mean±SD ([4]; after triple dose: first week (icodec) / first 48 h (glargine U100), all participants, induction period excluded): 0.29±1.24%
- Percentage time spent with glucose <3.0 mmol/l (CGM), mean±SD [4, 16]: 0.56±1.70%
- Percentage time spent with glucose <3.9 mmol/l (CGM), mean±SD [4, 16]: 2.67±4.71%
- Adrenaline at PG3.0 mmol/l, treatment ratio (95% CI) icodec vs glargine U100 (adrenaline (epinephrine); double dose): 0.90 (0.54, 1.52)
- Adrenaline at PGnadir, treatment ratio (95% CI) icodec vs glargine U100 (adrenaline (epinephrine); double dose): 0.90 (0.62, 1.30)
- Adrenaline at PG3.0 mmol/l, estimated geometric mean (adrenaline (epinephrine); [11]): 476.7 pmol/L
- Adrenaline at PGnadir, estimated geometric mean (adrenaline (epinephrine); [12]): 530.4 pmol/L
- Adrenaline at PG3.0 mmol/l, treatment ratio (95% CI) icodec vs glargine U100 (adrenaline (epinephrine); triple dose): 2.54
- Adrenaline at PGnadir, treatment ratio (95% CI) icodec vs glargine U100 (adrenaline (epinephrine); triple dose): 1.29 (0.88, 1.89)
- Adrenaline at PG3.0 mmol/l, estimated geometric mean (adrenaline (epinephrine); [13]): 793.8 pmol/L
- Adrenaline at PGnadir, estimated geometric mean (adrenaline (epinephrine); [14]): 735.8 pmol/L
- Insulin receptor binding affinity (insulin receptor): low
- Binding to albumin (albumin): strong, reversible binding
- Growth hormone at PG3.0 mmol/l, treatment ratio (95% CI) icodec vs glargine U100 (growth hormone; double dose): 0.89 (0.46, 1.75)
- Growth hormone at PGnadir, treatment ratio (95% CI) icodec vs glargine U100 (growth hormone; double dose): 1.35 (0.94, 1.94)
- Growth hormone at PG3.0 mmol/l, estimated geometric mean (growth hormone; [11]): 3.6 µg/L
- Growth hormone at PGnadir, estimated geometric mean (growth hormone; double dose, 19 glargine U100): 4.7 µg/L
- Growth hormone at PG3.0 mmol/l, treatment ratio (95% CI) icodec vs glargine U100 (growth hormone; triple dose): 1.54
- Growth hormone at PGnadir, treatment ratio (95% CI) icodec vs glargine U100 (growth hormone; triple dose): 1.10 (0.50, 2.43)
- Growth hormone at PGnadir, estimated geometric mean (growth hormone; triple dose, 29 glargine U100): 3.8 µg/L
- Growth hormone at PG3.0 mmol/l, estimated geometric mean (growth hormone; [13]): 3.7 µg/L
- Change in DBP at PG3.0 mmol/l, treatment difference (95% CI) icodec vs glargine U100 ([5]; double dose): 1.7 (-3.1, 6.4)
- Change in DBP at PGnadir, treatment difference (95% CI) icodec vs glargine U100 ([5]; double dose): 0.5 (-4.0, 4.9)
- Change in SBP at PG3.0 mmol/l, treatment difference (95% CI) icodec vs glargine U100 ([5]; double dose): 3.7 (-4.3, 11.7)
- Change in SBP at PGnadir, treatment difference (95% CI) icodec vs glargine U100 ([5]; double dose): -5.2 (-16.5, 6.1)
- Change in pulse at PG3.0 mmol/l, treatment difference (95% CI) icodec vs glargine U100 ([5]; double dose): -0.9 (-7.4, 5.7)
- Change in pulse at PGnadir, treatment difference (95% CI) icodec vs glargine U100 ([5]; double dose): 0.2 (-5.0, 5.4)
- Change in SBP at PG3.0 mmol/l, least-squares mean [5, 11]: -4.9 mmHg
- Change in pulse at PG3.0 mmol/l, least-squares mean [5, 11]: -1.3 beats/min
- Change in DBP at PGnadir, least-squares mean [5, 12]: -5.4 mmHg
- Change in SBP at PGnadir, least-squares mean [5, 12]: -7.7 mmHg
- Change in pulse at PGnadir, least-squares mean [5, 12]: 1.2 beats/min
- Change in DBP at PG3.0 mmol/l, least-squares mean ([5]; double dose, supine, n=17 icodec, 15 glargine U100): -6.1 mmHg
- Change in DBP at PG3.0 mmol/l, treatment difference (95% CI) icodec vs glargine U100 ([5]; triple dose): 0.8 (-3.4, 5.0)
- Change in DBP at PGnadir, treatment difference (95% CI) icodec vs glargine U100 ([5]; triple dose): 3.6 (-0.8, 8.0)
- Change in SBP at PG3.0 mmol/l, treatment difference (95% CI) icodec vs glargine U100 ([5]; triple dose): 0.7 (-6.6, 8.0)
- Change in SBP at PGnadir, treatment difference (95% CI) icodec vs glargine U100 ([5]; triple dose): 3.9 (-2.2, 10.0)
- Change in pulse at PG3.0 mmol/l, treatment difference (95% CI) icodec vs glargine U100 ([5]; triple dose): 0.8 (-4.4, 5.9)
- Change in pulse at PGnadir, treatment difference (95% CI) icodec vs glargine U100 ([5]; triple dose): 0.5 (-4.8, 5.7)
- Change in DBP at PG3.0 mmol/l, least-squares mean [5, 13]: -2.4 mmHg
- Change in SBP at PG3.0 mmol/l, least-squares mean [5, 13]: -0.9 mmHg
- Change in pulse at PG3.0 mmol/l, least-squares mean [5, 13]: 3.1 beats/min
- Change in DBP at PGnadir, least-squares mean [5, 14]: -1.1 mmHg
- Change in SBP at PGnadir, least-squares mean [5, 14]: 1.8 mmHg
- Change in pulse at PGnadir, least-squares mean [5, 14]: 2.8 beats/min
- Cortisol at PG3.0 mmol/l, treatment ratio (95% CI) icodec vs glargine U100 (cortisol; double dose): 1.60 (0.91, 2.80)
- Cortisol at PGnadir, treatment ratio (95% CI) icodec vs glargine U100 (cortisol; double dose): 0.99 (0.67, 1.45)
- Cortisol at PG3.0 mmol/l, estimated geometric mean (cortisol; [11]): 245.9 nmol/L
- Cortisol at PGnadir, estimated geometric mean (cortisol; double dose, 19 glargine U100): 296.0 nmol/L
- Cortisol at PG3.0 mmol/l, treatment ratio (95% CI) icodec vs glargine U100 (cortisol; triple dose): 1.64
- Cortisol at PGnadir, treatment ratio (95% CI) icodec vs glargine U100 (cortisol; triple dose): 1.80
- Cortisol at PGnadir, estimated geometric mean (cortisol; triple dose, 29 glargine U100): 355.0 nmol/L
- Cortisol at PG3.0 mmol/l, estimated geometric mean (cortisol; [13]): 201.4 nmol/L
